According to the supplement of paper PMC10567573:

B1: FAM50A (parent)
chain: HIFPASRWEPYDPEKKWDKYTIR
B2: LYSMD4 (parent)
chain: LLQRELAQEDSLNKLALQYGCKVA

Variants of: B1
Assay: protein stability index of a GFP-peptide fusion (GPS, HEK-293T) (PSI 1-6); higher = more stable
Conditions: c terminus: native
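Further: lentivirally expressed fusions sorted by FACS into six bins by GFP to DsRed ratio, PSI derived from sequencing read proportions per bin multiplied by bin number.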

Protein stability index: each site, then its substitutions
H1: Y 1.69, A 1.75, W 1.46, S 2.04, R 2.34
E9: Q 2.2, L 2.42, P 2.57
I2: T 2.38, D 2.28, E 2.95
R23: G 2.59, N 2.27, F 1.85, P 3.67, K 2.4, Y 2.1
K19: A 2.18, F 2.25, V 1.31, G 2.84, R 2.6, N 2.52
A5: E 1.96, Y 1.5, R 1.9, F 2.24
K15: H 1.45, A 2.23, V 2.1, C 3.43, I 1.9
E14: V 1.59, Q 2.04
R7: A 2.34, D 3.29, S 3.31
K16: I 1.54, W 1.92
W8: F 2.17, Q 4.11, N 3.88, V 3.62, T 4.03, H 3.46, P 3.92, D 3.54
T21: H 2.2, P 2.36, L 2.32, I 1.74, F 2.06
Y11: K 3.01, A 2.51, F 2.18
P13: C 1.48, F 2.8, A 2.44, Y 2.13
I22: C 2.15, V 2.75, D 2.02
D12: A 2.5, V 3.47, K 2.73
P4: V 1.79, C 1.69, T 3.16, E 2.45
Y20: Q 2.48, K 2.6, H 2.74, F 2.67
P10: C 3, R 2.7, Y 2.89, M 1.82, N 2.02
F3: G 4.42, Y 2.1, T 3
D18: T 2.37, N 4.48, K 3.01
W17: F 2.9, T 2.25

Variants of: B2
Assay: as above
Conditions: c terminus: a fixed tail appended

Protein stability index, by site and new letter:
L1: A 1.96, D 1.96, E 1.5, F 1.55, G 1.52, H 1.91, I 2.28, K 1.99, N 2.09, P 1.51, Q 1.32, R 1.6, T 1.8, W 2.31, Y 2.5
L2: A 2.26, C 1.67, D 2.63, E 2.92, F 2.25, H 1.02, I 2.18, K 2.6, M 2.27, N 2.04, P 2.31, Q 1.86, S 2.06, T 1.91, V 2.29, W 1.5, Y 1.61
Q3: G 2.85, H 2.24, I 1.46, L 1.59, M 1.65, N 2.3, P 1.41, S 3.41, T 1.27, Y 1.3
R4: A 1.64, C 3.8, D 2.08, G 1.24, H 1.56, K 2.82, L 2.03, N 2.04, P 2.06, S 1.25, T 1.9, V 3.51, Y 3.28
E5: A 3.05, D 1.44, F 3.86, H 1.91, K 1.76, N 1.71, P 1.99, Q 1, R 2.05, S 1.87, T 2.55, V 2.88, Y 2.21
L6: A 2.06, C 2.02, D 2.5, E 3, G 1.95, H 2.39, I 1.52, K 2.11, M 1.37, N 2.24, Q 2.18, R 1.61, S 1.67, T 1.92, V 1.62, W 1.87, Y 1.92
A7: C 1.73, D 2.09, E 1.8, F 2.73, H 2.72, I 2.63, K 2.14, M 2.77, P 1.97, Q 2.02, R 1.49, T 1.87, V 1.48, W 1.95, Y 2.12
Q8: A 1.73, D 4.68, E 1.84, F 1.59, G 1.42, H 1.54, I 1.89, K 1.66, L 1.58, M 1.92, N 3.38, P 1.48, R 1.47, S 2.25, T 1.45, Y 2.21
E9: A 1.53, C 1.53, D 2.68, G 1.28, H 2.54, I 2.69, K 1.35, L 3.17, M 1.85, N 2.4, P 1.63, Q 2.2, R 1.94, W 1.02, Y 1.9
D10: E 1.83, F 1.46, G 1.9, H 1.22, I 1.04, K 1.86, L 2.1, P 1.86, Q 2.67, R 1.68, T 1.92, Y 1.82
S11: A 1.76, C 1.79, D 1.88, G 2.25, H 2.01, I 1.04, K 2.01, M 2.39, P 1.48, R 2.65, T 1.38, Y 2.28
L12: A 2.5, C 1.72, D 4.13, E 3.83, F 2.33, G 3.39, H 3.65, I 2.06, K 2.02, M 1.97, N 3.52, P 3.54, R 2.49, S 3.54, T 3.48, V 2.31, W 1.23, Y 2.38
N13: C 2.49, D 1.03, E 1.65, F 1.65, G 1.23, K 1.94, P 1.95, Q 1.38, R 2.23, S 1.84, T 1.3, W 1.8
K14: C 2.37, D 2.23, F 2.4, G 2.91, H 2.07, N 1.86, Q 2.22, R 1, S 1.75, T 1.66, W 3.01, Y 2.06
L15: C 2.34, D 4.51, F 1.07, G 3.11, H 2.67, I 2.11, K 3.1, M 2.85, N 3.75, P 3.97, Q 3.65, S 2.88, T 2.93, V 1.62, W 1.2, Y 2.27
A16: D 3.12, E 1.65, G 2.18, H 3.4, I 2.66, K 2.48, N 1.98, Q 1.86, R 1.9, S 1.98, T 1.78, Y 1.26
L17: A 1.84, C 1.49, E 1.82, F 3.31, G 2.98, H 2.29, I 1.45, K 2.5, N 1.57, P 2.98, Q 2.12, T 1.09, V 2.06, W 2.65, Y 1.18
Q18: A 1.65, E 2.65, I 2.4, K 2.42, M 1.72, N 3.62, P 2.95, S 1.74
